The results in this text go back to PMC9536202.

The target of test [1] is Motility associated killing factor A (MakA), wild type. As to the kind of experiment: SEC.
In the next test the target is MakA^W243D. The test can be described thus: SEC. (SEC sorts molecules by how far they enter the pores of the column.)

In test [1], “Motility associated killing factor A (MakA), wild type (natural protein)” registered a percent monomer of 80% and a percent oligomer of 20%. Consider MakA^W243D (natural protein), for which the percent oligomer with MakA^W243D is 100%.
